Here are results for six variants from PMC10958042.

B1: ATGL (PNPLA2, patatin-like phospholipase domain-containing protein 2), human, full length / G0S2 (G0/G1 switch protein 2), human (parent)
chain 1: MFPREKTWNISFAGCGFLGVYYVGVASCLREHAPFLVANATHIYGASAGALTATALVTGVCLGEAGAKFIEVSKEARKRFLGPLHPSFNLVKIIRSFLLKVLPADSHEHASGRLGISLTRVSDGENVIISHFNSKDELIQANVCSGFIPVYCGLIPPSLQGVRYVDGGISDNLPLYELKNTITVSPFSGESDICPQDSSTNIHELRVTNTSIQFNLRNLYRLSKALFPPEPLVLREMCKQGYRDGLRFLQRNGLLNRPNPLLALPPARPHGPEDKDQAVESAQAEDYSQLPGEDHILEHLPARLNEALLEACVEPTDLLTTLSNMLPVRLATAMMVPYTLPLESALSFTIRLLEWLPDVPEDIRWMKEQTGSICQYLVMRAKRKLGRHLPSRLPEQVELRRVQSLPSVPLSCAAYREALPGWMRNNLSLGDALAKWEECQRQLLLGLFCTNVAFPPEALRMRAPADPAPAPADPASPQHQLAGPAPLLSTPAPEARPVIGALGL
chain 2: METVQELIPLAKEMMAQKRKGKMVKLYVLGSVLALFGVVLGLMETVCSPFTAARRLRDQEAAVAELQAALERQALQKQALQEKGKQQDTVLGGRALSNRQHAS

In this test the parent is B1. Kind of test: LUMIER: Protein A-ATGL variant and firefly luciferase-partner co-expressed in HEK293T, lysates immunoprecipitated on IgG-coated plates, co-precipitated partner measured as luciferase luminescence. Conditions: with G0S2 (G0/G1 switch protein 2), transient co-transfection, IgG-coated LUMITRAC plates, 2 h at 4 °C, three PBS washes, Bright-Glo luciferase reagent, triplicates per assay, two …, scale: log2 fold change of co-immunoprecipitated luminescence relative to wild-type ATGL within each experiment.

For the variant chain 1 MFPREKTWNISFAGCGFLGVYYVGVASCLREHAPFLVANATHIYGASAGALTATALVTGVCLGEAGAKFIEVSKEARKRFLGPLHPSFNLVKIIRSFLLKVLPADSHEHASGRLGISLTRVSDGENVIISHFNSKDELIQANVCSGFIPVYCGLIPPSLQGVRYVDGGISDNLPLYELKNTITVSPFSGESDICPQDSSTNIHELRVTNTSIQFNLRNLYRLSKALFPPEPLVLREMCKQGYRDGLRFLQRNGLLNRLNPLLALPPARPHGPEDKDQAVESAQAEDYSQLPGEDHILEHLPARLNEALLEACVEPTDLLTTLSNMLPVRLATAMMVPYTLPLESALSFTIRLLEWLPDVPEDIRWMKEQTGSICQYLVMRAKRKLGRHLPSRLPEQVELRRVQSLPSVPLSCAAYREALPGWMRNNLSLGDALAKWEECQRQLLLGLFCTNVAFPPEALRMRAPADPAPAPADPASPQHQLAGPAPLLSTPAPEARPVIGALGL [chain 1 P258L], the screen value (parent: 0.26, not graded) is -1.36 and the screen value (parent: 0.56, not graded) is -1.64.

chain 1 MFPREKTWNISFAGCGFLGVYYVGVASCLREHAPFLVANATHIYGASAGALTATALVTGVCLGEAGAKFIEVSKEARKRFLGPLHKSFNLVKIIRSFLLKVLPADSHEHASGRLGISLTRVSDGENVIISHFNSKDELIQANVCSGFIPVYCGLIPPSLQGVRYVDGGISDNLPLYELKNTITVSPFSGESDICPQDSSTNIHELRVTNTSIQFNLRNLYRLSKALFPPEPLVLREMCKQGYRDGLRFLQRNGLLNRPNPLLALPPARPHGPEDKDQAVESAQAEDYSQLPGEDHILEHLPARLNEALLEACVEPTDLLTTLSNMLPVRLATAMMVPYTLPLESALSFTIRLLEWLPDVPEDIRWMKEQTGSICQYLVMRAKRKLGRHLPSRLPEQVELRRVQSLPSVPLSCAAYREALPGWMRNNLSLGDALAKWEECQRQLLLGLFCTNVAFPPEALRMRAPADPAPAPADPASPQHQLAGPAPLLSTPAPEARPVIGALGL [chain 1 P86K]: the screen value was -0.894 (parent: 0.26, not graded) and -0.783 (parent: 0.56, not graded).

Consider chain 1 MFPREKTWNISFAGCGFLGVYYVGVASCLREHAPFLVANATHIYGASAGALTATALVTGVCLGEAGAKFIEVSKEARKRFLGPLHPSFNLVKIIRSFLLKVLPADSHEHASGRLGISLTRVSDGENVIISHFNSKDELIQANVCSGFIPVYCGLIKPSLQGVRYVDGGISDNLPLYELKNTITVSPFSGESDICPQDSSTNIHELRVTNTSIQFNLRNLYRLSKALFPPEPLVLREMCKQGYRDGLRFLQRNGLLNRPNPLLALPPARPHGPEDKDQAVESAQAEDYSQLPGEDHILEHLPARLNEALLEACVEPTDLLTTLSNMLPVRLATAMMVPYTLPLESALSFTIRLLEWLPDVPEDIRWMKEQTGSICQYLVMRAKRKLGRHLPSRLPEQVELRRVQSLPSVPLSCAAYREALPGWMRNNLSLGDALAKWEECQRQLLLGLFCTNVAFPPEALRMRAPADPAPAPADPASPQHQLAGPAPLLSTPAPEARPVIGALGL [chain 1 P156K], for which the screen value reads like this: (parent: 0.26, not graded) -2.18; (parent: 0.56, not graded) -2.45.

In the case of chain 1 MFPREKTWNISFAGCGFLGVYYVGVASCLREHAPFLVANATHIYGASAGALTATALVTGVCLGEAGAKFIEVSKEARKRFLGPLHPSFNLVKIIRSFLLKVLPADSHEHASGRLGISLTRVSDGENVIISHFNSKDELIAANVCSGFIPVYCGLIPPSLQGVRYVDGGISDNLPLYELKNTITVSPFSGESDICPQDSSTNIHELRVTNTSIQFNLRNLYRLSKALFPPEPLVLREMCKQGYRDGLRFLQRNGLLNRPNPLLALPPARPHGPEDKDQAVESAQAEDYSQLPGEDHILEHLPARLNEALLEACVEPTDLLTTLSNMLPVRLATAMMVPYTLPLESALSFTIRLLEWLPDVPEDIRWMKEQTGSICQYLVMRAKRKLGRHLPSRLPEQVELRRVQSLPSVPLSCAAYREALPGWMRNNLSLGDALAKWEECQRQLLLGLFCTNVAFPPEALRMRAPADPAPAPADPASPQHQLAGPAPLLSTPAPEARPVIGALGL [chain 1 Q140A], the screen value was 0.0979 (parent: 0.26, not graded) and 0.734 (parent: 0.56, not graded).

In the case of chain 1 MFPREKTWNISFAGCGFLGVYYVGVASCLREHAPFLVANATHIYGASAGALTATALVTGVCLGEAGAKFIEVSKEARKRFLGPLHPSFNLVKIIRSFLLKVLPADSHEHASGRLGISLTRVSDGENVIISHFNSKDELIKANVCSGFIPVYCGLIPPSLQGVRYVDGGISDNLPLYELKNTITVSPFSGESDICPQDSSTNIHELRVTNTSIQFNLRNLYRLSKALFPPEPLVLREMCKQGYRDGLRFLQRNGLLNRPNPLLALPPARPHGPEDKDQAVESAQAEDYSQLPGEDHILEHLPARLNEALLEACVEPTDLLTTLSNMLPVRLATAMMVPYTLPLESALSFTIRLLEWLPDVPEDIRWMKEQTGSICQYLVMRAKRKLGRHLPSRLPEQVELRRVQSLPSVPLSCAAYREALPGWMRNNLSLGDALAKWEECQRQLLLGLFCTNVAFPPEALRMRAPADPAPAPADPASPQHQLAGPAPLLSTPAPEARPVIGALGL [chain 1 Q140K], the screen value is 0.195 (parent: 0.26, not graded) and -0.175 (parent: 0.56, not graded).

In the case of chain 1 MFPREKTWNISFAGCGFLGVYYVGVASCLREHAPFLVANATHIYGASAGALTATALVTGVCLGEAGAKFIEVSKEARKRFLGPLHPSFNLVKIIRSFLLKVLKADSHEHASGRLGISLTRVSDGENVIISHFNSKDELIQANVCSGFIPVYCGLIPPSLQGVRYVDGGISDNLPLYELKNTITVSPFSGESDICPQDSSTNIHELRVTNTSIQFNLRNLYRLSKALFPPEPLVLREMCKQGYRDGLRFLQRNGLLNRPNPLLALPPARPHGPEDKDQAVESAQAEDYSQLPGEDHILEHLPARLNEALLEACVEPTDLLTTLSNMLPVRLATAMMVPYTLPLESALSFTIRLLEWLPDVPEDIRWMKEQTGSICQYLVMRAKRKLGRHLPSRLPEQVELRRVQSLPSVPLSCAAYREALPGWMRNNLSLGDALAKWEECQRQLLLGLFCTNVAFPPEALRMRAPADPAPAPADPASPQHQLAGPAPLLSTPAPEARPVIGALGL [chain 1 P103K], the screen value (parent: 0.26, not graded) was -0.0704 and the screen value (parent: 0.56, not graded) worked out at 6.88e-05.
